From publication PMC11260460, “A Plasmodium apicoplast-targeted unique exonuclease/FEN exhibits interspecies functional differences attributable to an insertion that alters DNA-binding”

Experiments:
PfExoΔins [1] = molecular target: T1, PfExoΔins (Plasmodium falciparum 3D7, UniProt O96139 91-577, del241-393); experiment: BLI; EMSA: 400 nM FAM-DNA, binding buffer as printed 200 mM HEPES pH 8.0, 500 mM NaCl, 10 mM DTT, 1 mg/ml BSA, 10% glycerol, 2 mM MgCl2, 30 min on ice, 6% native PAGE; BLI: 1x kinetic buffer in 1x PBS, Octet R8, 1:1 global fit; details: protein: recombinant; tags: C-terminal 6xHis; label: 5' biotin on strand 1; blunt
PfExo [2] = molecular target: T2, PfExo (Plasmodium falciparum 3D7, UniProt O96139 91-577); experiment: BLI; KD value only in figure; EMSA: 400 nM FAM-DNA, binding buffer as printed 200 mM HEPES pH 8.0, 500 mM NaCl, 10 mM DTT, 1 mg/ml BSA, 10% glycerol, 2 mM MgCl2, 30 min on ice, 6% native PAGE; BLI: 1x kinetic buffer in 1x PBS, Octet R8, 1:1 global fit; details: protein: recombinant; tags: C-terminal 6xHis; label: 5' biotin on strand 1; blunt
T2 sequence: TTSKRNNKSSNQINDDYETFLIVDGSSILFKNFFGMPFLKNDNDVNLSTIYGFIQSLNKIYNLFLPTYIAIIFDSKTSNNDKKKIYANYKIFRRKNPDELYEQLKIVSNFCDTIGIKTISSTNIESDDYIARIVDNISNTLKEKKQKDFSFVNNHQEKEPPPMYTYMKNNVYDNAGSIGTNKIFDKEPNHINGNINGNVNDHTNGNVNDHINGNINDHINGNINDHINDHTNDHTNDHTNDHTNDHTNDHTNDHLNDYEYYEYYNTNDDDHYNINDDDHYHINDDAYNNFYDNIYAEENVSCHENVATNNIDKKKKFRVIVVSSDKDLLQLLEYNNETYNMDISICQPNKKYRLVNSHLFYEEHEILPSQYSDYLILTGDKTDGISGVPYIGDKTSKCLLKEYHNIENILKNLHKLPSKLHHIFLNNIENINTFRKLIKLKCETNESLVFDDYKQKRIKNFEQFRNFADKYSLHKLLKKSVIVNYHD

PfExo [3] = molecular target: T2, PfExo; experiment: EMSA; 2 mM Mg2+; EMSA: 400 nM FAM-DNA, binding buffer as printed 200 mM HEPES pH 8.0, 500 mM NaCl, 10 mM DTT, 1 mg/ml BSA, 10% glycerol, 2 mM MgCl2, 30 min on ice, 6% native PAGE; BLI: 1x kinetic buffer in 1x PBS, Octet R8, 1:1 global fit; details: protein: recombinant, tags: C-terminal 6xHis
PfExoΔins [4] = molecular target: T1, PfExoΔins; experiment: as above; details: protein: recombinant, tags: C-terminal 6xHis

B1: BLI blunt-end dsDNA (34 bp) (dsDNA)
DNA 1: CAGTCCGAGCTAGGCAACATACGATAATCCATAC
DNA 2: GTATGGATTATCGTATGTTGCCTAGCTCGGACTG
- binding signal (PfExoΔins [1]): ~5 fold higher KD than PfExo
- binding result (PfExo [2]): binds

B2: ssDNA 5'-3' exo substrate (ssDNA)
DNA: AAAACGTCAACTAGCTTCTCAAACACCTCATATATCTTAA
- binding result (PfExo [3]; label: 3' 6-FAM, single strand): binds

B3: 5'-flap DNA (dsDNA)
DNA 1: AAAACGTCAACTAGCTTCTCAAACAGCTCATATATCTTAA
DNA 2: CAGTCCGAGCTAGGCAACATACGATAATCCATAC
DNA 3: TTAAGATATATGAGCAGTATGGATTATCGTATGTTGCCTAGCTCGGACTG
- binding result (PfExoΔins [4]; label: FAM, 5' flap): no binding
- binding result (PfExo [3]; label: FAM, 5' flap): binds

B4: Blunt-end dsDNA (14 bp) (dsDNA)
DNA 1: CTAGTGTACATGCA
DNA 2: TGCATGTACACTAG
- binding result (PfExoΔins [4]; label: 3' 6-FAM on strand 1, blunt): no binding

B5: ssDNA 3'-5' exo substrate (ssDNA)
DNA: AAAACGTCAACTAGCTTCTCAAACAGCTCATATATCTTAA
- binding result (PfExo [3]; label: 5' 6-FAM, single strand): binds
